Experiments:
Format in all cases: biochemical, human
[1] = substrate: Oc1ccc2ccc3c4ccccc4cc4ccc1c2c43; experiment: Kinetics of 3-OH-BaP sulfonation by expressed SULT1A1*2; settings: other: expressed SULT1A1*2; two-substrate model
Description: (§1) The expression of human SULT1A1*1, SULT1A3, SULT1B1, and SULT1E1 in Escherichia coli has been described previously ([Dajani et al. 1998]; [Wang et al. 1998]). We grew E. coli cells containing the respective sulfotransferase genes as described previously ([Falany et al. 1990], [1994]), and prepared 100,000g supernatant fractions for use in inhibition studies and for partial purification of the SULT enzymes. We purchased expressed SULT1A1*2 cytosolic extract from PanVera (Madison, WI) and used it as supplied.
(§2) We determined SULT activity with 3-OH-BaP as substrate by a fluorimetric assay of BaP-3-SO4 product formation, as described previously ([Wang et al. 2004]). […] Duplicate tubes were prepared for each incubation condition. We examined the kinetics of sulfonation in three liver cytosol fractions by systematically varying the concentration of 3-OH-BaP or PAPS. […]
(§3) We determined the kinetic parameters for 3-OH-BaP sulfonation by partially purified preparations of the cDNA-expressed SULT isozymes under incubation conditions similar to those used for liver cytosol. […]
(§4) We calculated the enzyme kinetic parameters from studies with variable concentrations of 3-OH-BaP using nonlinear regression analysis and GraphPad 4.0 software (GraphPad Software, San Diego, CA). […]

[2] = substrate: Oc1ccc2ccc3c4ccccc4cc4ccc1c2c43; experiment: Kinetics of 3-OH-BaP sulfonation by partially purified cDNA-expressed SULT1A1*1; settings: other: apparent; partially purified SULT1A1*1; 3-OH-BaP as substrate
Description: as §1
(§5) The 100,000g supernatant fractions of SULT1A1*1, SULT1A3, SULT1B1, and SULT1E1 were partially purified by chromatographic methods ([Falany et al. 1990], [1994]). After the last step, a 3′-phosphoadenosine 5′-phosphate (PAP)-agarose affinity column, we dialyzed the fractions eluted with PAP with three changes of buffer to remove PAP before the assay of SULT activity with 3-OH-BaP as substrate. We analyzed active fractions by SDS-PAGE ([Laemmli 1970]) to assess the purity of each SULT enzyme. We stained the gels with Coomassie R-250 reagent and determined the percentage of protein present as each respective SULT enzyme by scanning densitometry.
as §2, with “PAPS. When the variable substrate was 3-OH-BaP, we used 12 concentrations in the range from 0.035 to 2.00 μM, and the concentration of PAPS was kept constant at 10 μM.” for “PAPS.”
as §3, §4

[3] = substrate: Oc1ccc2ccc3c4ccccc4cc4ccc1c2c43; experiment: Kinetics of 3-OH-BaP sulfonation by partially purified cDNA-expressed SULT1A3; settings: other: apparent, 3-OH-BaP as substrate
Description: as §1, §5
as §2, with “PAPS. When the variable substrate was 3-OH-BaP, we used 12 concentrations in the range from 0.035 to 2.00 μM, and the concentration of PAPS was kept constant at 10 μM.” for “PAPS.”
as §3, §4

[4] = substrate: Oc1ccc2ccc3c4ccccc4cc4ccc1c2c43; experiment: Kinetics of 3-OH-BaP sulfonation by partially purified cDNA-expressed SULT1E1; settings: other: apparent, 3-OH-BaP as substrate
Description: as §1, §5
as §2, with “PAPS. When the variable substrate was 3-OH-BaP, we used 12 concentrations in the range from 0.035 to 2.00 μM, and the concentration of PAPS was kept constant at 10 μM.” for “PAPS.”
as §3, §4

B1: SULT1A1*2 (Homo sapiens; R213H) (protein)
chain: MELIQDTSRPPLEYVKGVPLIKYFAEALGPLQSFQARPDDLLISTYPKSGTTWVSQILDMIYQGGDLEKCHRAPIFMRVPFLEFKAPGIPSGMETLKDTPAPRLLKTHLPLALLPQTLLDQKVKVVYVARNAKDVAVSYYHFYHMAKVHPEPGTWDSFLEKFMVGEVSYGSWYQHVQEWWELSRTHPVLYLFYEDMKENPKREIQKILEFVGHSLPEETVDFVVQHTSFKEMKKNPMTNYTTVPQEFMDHSISPFMRKGMAGDWKTTFTVAQNERFDADYAEKMAGCSLSFRSEL
notes: purchased PanVera (Madison, WI); host or cells: Sf-9
B1 was tested, and the Km [1] was 0.022 µM.

B2: SULT1A1*1 (Homo sapiens) (protein)
chain: MELIQDTSRPPLEYVKGVPLIKYFAEALGPLQSFQARPDDLLISTYPKSGTTWVSQILDMIYQGGDLEKCHRAPIFMRVPFLEFKAPGIPSGMETLKDTPAPRLLKTHLPLALLPQTLLDQKVKVVYVARNAKDVAVSYYHFYHMAKVHPEPGTWDSFLEKFMVGEVSYGSWYQHVQEWWELSRTHPVLYLFYEDMKENPKREIQKILEFVGRSLPEETVDFVVQHTSFKEMKKNPMTNYTTVPQEFMDHSISPFMRKGMAGDWKTTFTVAQNERFDADYAEKMAGCSLSFRSEL
notes: made in house; host or cells: Escherichia coli
For B2, the Km [2] was 0.018 µM, the Vmax [2] was 0.00689 µmol/min/mg and the Vmax/Km [2] was 383000 µL/min/mg.

B3: SULT1A3 (Homo sapiens) (protein)
chain: MELIQDTSRPPLEYVKGVPLIKYFAEALGPLQSFQARPDDLLINTYPKSGTTWVSQILDMIYQGGDLEKCNRAPIYVRVPFLEVNDPGEPSGLETLKDTPPPRLIKSHLPLALLPQTLLDQKVKVVYVARNPKDVAVSYYHFHRMEKAHPEPGTWDSFLEKFMAGEVSYGSWYQHVQEWWELSRTHPVLYLFYEDMKENPKREIQKILEFVGRSLPEETMDFMVQHTSFKEMKKNPMTNYTTVPQELMDHSISPFMRKGMAGDWKTTFTVAQNERFDADYAEKMAGCSLSFRSEL
notes: as for B2
B3 gave a Km [3] of 2.90 µM, a Vmax [3] of 0.333 µmol/min/mg and a Vmax/Km [3] of 115000 µL/min/mg.

B4: SULT1E1 (Homo sapiens) (protein)
chain: MNSELDYYEKFEEVHGILMYKDFVKYWDNVEAFQARPDDLVIATYPKSGTTWVSEIVYMIYKEGDVEKCKEDVIFNRIPFLECRKENLMNGVKQLDEMNSPRIVKTHLPPELLPASFWEKDCKIIYLCRNAKDVAVSFYYFFLMVAGHPNPGSFPEFVEKFMQGQVPYGSWYKHVKSWWEKGKSPRVLFLFYEDLKEDIRKEVIKLIHFLERKPSEELVDRIIHHTSFQEMKNNPSTNYTTLPDEIMNQKLSPFMRKGITGDWKNHFTVALNEKFDKHYEQQMKESTLKFRTEI
notes: as for B2
With B4 the Km [4] was 0.05 µM, the Vmax [4] was 0.00835 µmol/min/mg and the Vmax/Km [4] was 167000 µL/min/mg.
